{
  "source": "the DeepSol protein solubility set",
  "data": [
    {"assay": "soluble on expression in E. coli; label from the status in PepcDB or PDB records", "values": [
      {"sequence": "ARKRAAGGEPRGRELRSQKSKAKSKARREEEEEDAFEDEKPPKKSLLSKVSQGKRKRGCSHPGGSADGPAKKKVAKVTVKSENLKVIKDEALSDGDDLRDFPSDLKKAHHLKRGATMNEDSNEEEEESENDWEEVEELSEPVLGDVRESTAFSRSLLPVKPVEIEIETPEQAKTRERSEKIKLEFETYLRRAMKRFNKGVHEDTHKVHLLCLLANGFYRNNICSQPDLHAIGLSIIPARFTRVLPRDVDTYYLSNLVKWFIGTFTVNAELSASEQDNLQTTLERRFAIYSARDDEELVHIFLLILRALQLLTRLVLSLQPIPLKSATAKGKKPSKERLTADPGGSSETSSQVLENHTKPKTSKGTKQEETFAKGTCRPSAKGKRNKGGRKKRSKPSSSEEDEGPGDKQEKATQRRPHGRERRVASRVSYKEESGSDEAGSGSDFELSSGEASDPSDEDSEPGPPKQRKAPAPQRTKAGSKSASRTHRGSHRKDPSLPVASSSSSSSKRGKKMCSDGEKAEKRSIAGIDQWLEVFCEQEEKWVCVDCVHGVVGQPLTCYKYATKPMTYVVGIDSDGWVRDVTQRYDPVWMTVTRKCRVDAEWWAETLRPYQSPFMDREKKEDLEFQAKHMDQPLPTAIGLYKNHPLYALKRHLLKYEAIYPETAAILGYCRGEAVYSRDCVHTLHSRDTWLKKARVVRLGEVPYKMVKGFSNRARKARLAEPQLREENDLGLFGYWQTEEYQPPVAVDGKVPRNEFGNVYLFLPSMMPIGCVQLNLPNLHRVARKLDIDCVQAITGFDFHGGYSHPVTDGYIVCEEFKDVLLTAWENEQAVIERKEKEKKEKRALGNWKLLAKGLLIRERLKRRYGPKSEAAAPHTDAGGGLSSDEEEGTSSQAEAARILAASWPQNREDEEKQKLKGGPKKTKREKKAAASHLFPFEKL", "soluble on expression in E. coli": "not soluble"},
      {"sequence": "GSSLASQGQNLSTVLANLTPEQQKNVLGERLYNHIVAINPAAAAKVTGMLLEMDNGEILNLLDTPGLLDAKVQEALEVLNRHMNV", "soluble on expression in E. coli": "soluble"},
      {"sequence": "MGSDKIHHHHHHMIIEHARDMLKRERLFFDKMQAHIGEVNGTISIGCSSLIGQTLLPEVLSLYNAQFPNVEIQVQVGSTEQIKANHRDYHVMITRGNKVMNLANTHLFNDDHYFIFPKNRRDDVTKLPFIEFQADPIYINQIKQWYNDNLEQDYHATITVDQVATCKEMLISGVGVTILPEIMMKNISKEQFEFEKVEIDNEPLIRSTFMSYDPSMLQLPQVDSFVNLMASFVEQPKA", "soluble on expression in E. coli": "not soluble"},
      {"sequence": "MTDNPAVDKRDQILAAAEQLIAESGFQGLSMQKLANEAGVAAGTIYRYFSDKEHLLEEVRLNVAKRIASAVQAGVNDDMPLKECYRTMWLNIWNLAGSNLNAISNRVQYDSLPCTTRNKTWELERKMFAQVDRLFNQGKEEGVFKPLDNEVLSGLSFEASVALARKHALGFYQLDDDALEAAIEASWDAIIKH", "soluble on expression in E. coli": "soluble"},
      {"sequence": "MPTISRSALVMYSVDQMYQLINDIPAYPKFLPDCNDSKVIDQDEQSVTAALLVSKGGLSKWFTTKNTLISNEKIHLSLVDGPFKKLEGYWLLTPLSDEACKVSLELEYEFSNKLVSLAFGKVFGHFSNSLVQVFTQRAKEIYGVNVLEHHHHHH", "soluble on expression in E. coli": "soluble"},
      {"sequence": "SNAKIIGYARVSFNAQKDDLERQIQLIKSYAEENGWDIQILKDIGSGLNEKRKNYKKLLKMVMNRKVEKVIIAYPDRLTRFGFETLKEFFKSYGTEIVIINKKHKTPQEELVEDLITIVSHFAGKLYGMHSHKYKKLTKTVKEIVREEDAKEKE", "soluble on expression in E. coli": "soluble"},
      {"sequence": "MFTIRKARIDDCGLINQMAGEVFPATYQEILSPGQLDYMMDWMYSPENIRKQMEEEGHVYFIAYEGDEPCGYVSVQQQEENVFHLQKIYVLPHFQGAHCGSFLFREAVRYIKEVHPEPCLMELNVNRNNKALLFYERMGMRKLREGDFPIGNGYYMNDYIMGLDI", "soluble on expression in E. coli": "not soluble"},
      {"sequence": "MNTMLNPHYQQIWQTVQLIPQGKVACYGQIADLAGLPGRARLVGKSLGKVPKDGWRGQRVPWFRVINSQGKISFPPGSENFDKQKHHLQDEQVVVIGSRIKLKEFQWKPDLSELLFSLEFLEHHHHHH", "soluble on expression in E. coli": "not soluble"},
      {"sequence": "ASLDSEVELLPHTSFAESLGPWSLYGTSEPVFADGRMCVDLPGGQGNPWDAGLVYNGVPVGEGESYVLSFTASATPDMPVRVLVGEGGGAYRTAFEQGSAPLTGEPATREYAFTSNLTFPPDGDAPGQVAFHLGKAGAYEFCISQVSLTTSAT", "soluble on expression in E. coli": "soluble"},
      {"sequence": "MAKEKKRGFFSWLGFGQKEQTPEKETEVQNEQPVVEEIVQAQEPVKASEQAVEEQPQAHTEAEAETFAADVVEVTEQVAESEKAQPEAEVVAQPEPVVEETPEPVAIEREELPLPEDVNAEAVSPEEWQAEAETVEIVEAAEEEAAKEEITDEELETALAAEAAEEAVMVVPPAEEEQPVEEIAQEQEKPTKEGFFARLKRSLLKTKENLGSGFISLFRGKKIDDDLFEELEEQLLIADVGVETTRKIITNLTEGASRKQLRDAEALYGLLKEEMGEILAKVDEPLNVEGKAPFVILMVGVNGVGKTTTIGKLARQFEQQGKSVMLAAGDTFRAAAVEQLQVWGQRNNIPVIAQHTGADSASVIFDAIQAAKARNIDVLIADTAGRLQNKSHLMEELKKIVRVMKKLDVEAPHEVMLTIDASTGQNAVSQAKLFHEAVGLTGITLTKLDGTAKGGVIFSVADQFGIPIRYIGVGERIEDLRPFKADDFIEALFARED", "soluble on expression in E. coli": "soluble"},
      {"sequence": "MIFYFSGTGNSKWIAEQIAKAQNEVLVFMPNAIRDGIEEFVLADDEKVGFVFPVYSWGPPLSVLRFLDWITLSNYHSQYVFFVCSCGDDTGLTEELFRRALSRKGMECNAGFSVAMPNNYVLLPGFDVDKKELEKKKLDEAVGRVEEINDSITGKKIGFHCNEGSFPWFKTKVLNPLFNRFMTSAKPFYATDDCIGCKRCERICPVGNVVMIGWRPVWGMDCTSCLACYHVCPKHAVQYGRRTKRKGQYLNPNVSISHEAAAQLEHHHHHH", "soluble on expression in E. coli": "not soluble"},
      {"sequence": "ALIIVSGSEGRIEKAQNIAQLLSSRGYICLAIAYFGLEGLPKHLKRIPLECLVEAKSYLRQYPQVDSERIGIYGRSKGAELVLAEESIFNDVQCLVLNSPSDVVDEGIIGKWNSHTSSWTHLQKELPYQKFRFRDYLFSKLFRKDFPKDCSARIDIGQMHSPILLLESTVDEIWDASSAIDDIVSHYKGHYITFKKYHETGHMLTVAYQPNHRYRKDWHLLMKESEDSWLATIHFFDRHLK", "soluble on expression in E. coli": "not soluble"},
      {"sequence": "MATSVLCCLRCCRDGGTGHIPLKEMPAVQLDTQHMGIWGIGVATQKVNLNQIPLGRDMHSLVMRNDGALYHNNEEKNRLPANSLPQEGDVVGITYDHVELNVYLNGKNMHCPASGIRGTVYPVVYDDDSAILDCQFSEFYHTPPPGFEKILFEQQIF", "soluble on expression in E. coli": "not soluble"},
      {"sequence": "MSKPYLAGLLLISPWALAASGSWSSESFGGTMTRGQQSVKSKPLQSPSPLPPGARATTVHWKIKTDGLTPSGLRIRLCNAARCVRLAGWAGEMPLPAGIAPEGPFRFEYHASEAGTLRSPVTILSNQLTVSYHSSH", "soluble on expression in E. coli": "not soluble"},
      {"sequence": "MATALNPGRTSAPTPEAAPKLRFDARRYLGTPAVRRIKDEVEIELADRAYLPDLNDLKRDWVASVAAPAFRVLARNRATPPRAFASIGTGSGVDALAAIELLGAEIVGITDLFEEVVATAARNVRGNVRPEAGITLHAGAGDLLIPLAPAGVKFDVIYENLPNLPVDDSRKIEADKTSAAFLAPRSEAIPVFITDWLLTMHYLALVQARDALTPDGVVLSTVGARVPLDVLAQMSRAAGLVPRVLTYGWKVQADADDVISTYANWERQGLGPFRFYAADALEAAFANLDPGEAGANAATIEASLAGEQLGAVAAWEAHRSGLRIGHTYVVLQSGLGLEHHHHHH", "soluble on expression in E. coli": "soluble"},
      {"sequence": "MQPLFTQERRIFHKKLLDGNILATNNRGVVSNADGSNTRSFNIAKGIADLLHSETVSERLPGQTSGNAFEAICSEFVQSAFEKLQHIRPGDWNVKQVGSRNRLEIARYQQYAHLTALAKAAEENPELAAALGSDYTITPDIIVTRNLIADAEINRNEFLVDENIATYASLRAGNGNMPLLHASISCKWTIRSDRAQNARSEGLNLVRNRKGRLPHIVVVTAEPTPSRISSIALGTGEIDCVYHFALYELEQILQSLNYEDALDLFYIMVNGKRLKDISDLPLDLAV", "soluble on expression in E. coli": "soluble"},
      {"sequence": "MGSDKIHHHHHHVDALEVHRFLKGKIRTALPVEKVDRETLSLLYTPGVADVARACAEDPEKTYVYTSRWNTVAVVSDGSAVLGLGNIGPYGALPVMEGKAFLFKAFADIDAFPICLSESEEEKIISIVKSLEPSFGGINLEDIGAPKCFRILQRLSEEMNIPVFHDDQQGTAVVVSAAFLNALKLTEKKIEEVKVVVNGIGAAGYNIVKFLLDLGVKNVVAVDRKGILNENDPETCLNEYHLEIARITNPERLSGDLETALEGADFFIGVSRGNILKPEWIKKMSRKPVIFALANPVPEIDPELAREAGAFIVATGRSDHPNQVNNLLAFPGIMKGAVEKRSKITKNMLLSAVEAIARSCEPEPERIIPEAFDMKVHLNVYTAVKGSA", "soluble on expression in E. coli": "soluble"},
      {"sequence": "MTHNQSTALLTDMYELTMLQSALADGTAERQCTFEVFGRRLPNERRYGVVAGTPRVLEAVQNFRFTEAQLASLTFLNDTTLEYLRNYRFAGHIDGYREGELYFPHSPILTVRGTFAECVILETVILSIMNADSAVATAAARMVTAADGRTIIEMGSRRTHEYAAVTATRAAYLAGFSATSNLEAVHRYGIPGSGTAAHAWTLLHVNEDGTPNEKSAFESQVRAQGTGTTLLIDTYDIAQGVRNAIEVAGPELGAVRIDSGDLGVMTRKIRQELDNLGAHNTQIVVSSDLDEYAIAGLRGNPVDVFGVGTSVVTGSGAPTAGMVYKLVEVDGNPVSKRSRGKGMLGGAKRAARTHRASGTAVEELVFPYEHPVPQVGTLTSVELTIPLMRDGVVVEGLPTLEESRAYLAQQLVTIPWEGLALSRDEPVLATRHVGFDQLEHHHHHH", "soluble on expression in E. coli": "soluble"},
      {"sequence": "MDIETIVNEFETRAGTLLRYYTGLLERSKVQPCCFKLYNDPFDMVYVMMNSKLFSHVYIKDCKVRQSFELASPKHTEGLIRSIEGHYVGYELHDGKQLSISDMMASQLFEDEYFMYGLQTYAESNNSDVFKCLENGFDTDTLEGIQSSNTDVIANIEMLYQLATGINEPVPELVEGLKLVTEFVQDENATQEDYKALERKLNDLKASYYSLSKLAAALEHHHHHH", "soluble on expression in E. coli": "soluble"},
      {"sequence": "LRLWALTATECRLLLSTRWNVGRLYQLPVAASAEFASYQTQRDQLRQTFKNIASEILNPDDPRTDLPFHIALSVIEMRSNDGVVPEPLRDDE", "soluble on expression in E. coli": "not soluble"},
      {"sequence": "MGSDKIHHHHHHMSFSNEDRDVFIIKTDRMIDRGALMSRYSRASDPDIRSVFHREFEGNQKRSEDFYRRIFLEYGDESIAELVTAQVGIQNVSNVISKVIEEIRIGLSYLEKSTRYVAYDRKVDGHYLFMQAEKIGLSGEAAREYTDLCNRLFDLYSSTLPRIEEEISRQWPIESFDFNIDGNPRNYKELDENGRKLAQKSYRSSVRSRALDDARFILPASTLTNMGVSGNGRSFIHLIQKLMEYGVPESERLAHDLYEELKGEFPQIIDDALSQHGQDIINYKRSLASLFPYTDGGRFEKVRLIKYSNEREEMQKVLALLMYPFAEDASGIISRIKAMELSEASAILERIRDLRKNRRMKVGRPFEAVNYVFEVTTNYGAFRDLQRHRFLSIVRKPLTVSYGFDVPPIIAKMPDLSEEYAEAMKDAERVYRIIKERYGAWIAQYAVPFAYRYPVVFTTNLAEATYFIELRSTPQAHFDLRDIAIRMYNEIKSVHPSLAGIIKFVDTGDYPLGRLSAEVRKNVKAGGI", "soluble on expression in E. coli": "not soluble"}
    ]}
  ]
}
